Results from patent US20110105394A1 (Novo Nordisk, published 2011).
Blank lines part the entries; values can stand above or below the binder they belong to. *1 amine or outer side, *2 acyl side, *3 side chain or, on linkers, in order; H or OH if unused. Bridges are numbered along the chain shown (N, C = ends). Where no end group is shown, it is not given here. The star is where a group is joined. X2 = (S)‑4‑Carboxy‑4‑(19-carboxynonadecanoylamino)butyryl, O=C(O)CCCCCCCCCCCCCCCCCCC(=O)N[C@@H](CCC(=O)*)C(=O)O; C20 diacid = O=C(O)CCCCCCCCCCCCCCCCCCC(=O)*; γGlu = O=C(O)[C@H](CCC(=O)[*:2])N[*:1]

Tests used:
[1] = target: T1, Amylin 3(a) receptor (human calcitonin receptor (CTa) with RAMP-3) (human, UniProt P30988 25-474; O60896 24-148, limits assumed); assay: cell-based or functional assay
T1 sequence (looked up) 1: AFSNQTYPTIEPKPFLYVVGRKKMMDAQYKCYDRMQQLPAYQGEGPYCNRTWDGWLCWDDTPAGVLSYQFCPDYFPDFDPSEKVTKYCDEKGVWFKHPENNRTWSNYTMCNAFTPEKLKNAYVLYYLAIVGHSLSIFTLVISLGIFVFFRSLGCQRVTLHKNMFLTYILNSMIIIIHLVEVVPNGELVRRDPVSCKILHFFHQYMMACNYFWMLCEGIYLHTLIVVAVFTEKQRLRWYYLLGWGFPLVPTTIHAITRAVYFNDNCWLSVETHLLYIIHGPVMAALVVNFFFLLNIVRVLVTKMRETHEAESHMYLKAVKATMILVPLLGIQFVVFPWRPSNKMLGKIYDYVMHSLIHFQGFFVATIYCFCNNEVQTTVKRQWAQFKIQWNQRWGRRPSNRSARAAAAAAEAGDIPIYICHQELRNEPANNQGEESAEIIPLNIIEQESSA
T1 sequence (looked up) 2: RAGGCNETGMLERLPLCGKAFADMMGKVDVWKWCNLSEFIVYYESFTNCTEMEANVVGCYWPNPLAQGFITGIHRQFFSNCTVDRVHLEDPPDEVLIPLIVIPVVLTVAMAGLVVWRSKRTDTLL

[2] = target: T2, Amylin 3(a) receptor (human calcitonin receptor (CTa) with RAMP-3) (human) (UniProt P30988); assay: cell-based or functional assay
T2 sequence (looked up) 1: T1 sequence (looked up) 1
T2 sequence (looked up) 2: T1 sequence (looked up) 2

B3: N-alpha-[(S)-4-Carboxy-4-(19-carboxynonadecanoylamino)butyryl]-Arg-His[Arg1,His17]-pramlintide (peptide)
peptide: X2-RHRCNTATCATQRLANFLHHSSNNFGPILPPTNVGSNTY-NH2
modifications: disulfide 4-9
SMILES: CC[C@H](C)[C@H](NC(=O)[C@@H]1CCCN1C(=O)CNC(=O)[C@H](Cc1ccccc1)NC(=O)[C@H](CC(N)=O)NC(=O)[C@H](CC(N)=O)NC(=O)[C@H](CO)NC(=O)[C@H](CO)NC(=O)[C@H](Cc1c[nH]cn1)NC(=O)[C@H](Cc1c[nH]cn1)NC(=O)[C@H](CC(C)C)NC(=O)[C@H](Cc1ccccc1)NC(=O)[C@H](CC(N)=O)NC(=O)[C@H](C)NC(=O)[C@H](CC(C)C)NC(=O)[C@H](CCCNC(=N)N)NC(=O)[C@H](CCC(N)=O)NC(=O)[C@@H](NC(=O)[C@H](C)NC(=O)[C@@H]1CSSC[C@H](NC(=O)[C@H](CCCNC(=N)N)NC(=O)[C@H](Cc2c[nH]cn2)NC(=O)[C@H](CCCNC(=N)N)NC(=O)CC[C@H](NC(=O)CCCCCCCCCCCCCCCCCCC(=O)O)C(=O)O)C(=O)N[C@@H](CC(N)=O)C(=O)N[C@@H]([C@@H](C)O)C(=O)N[C@@H](C)C(=O)N[C@@H]([C@@H](C)O)C(=O)N1)[C@@H](C)O)C(=O)N[C@@H](CC(C)C)C(=O)N1CCC[C@H]1C(=O)N1CCC[C@H]1C(=O)N[C@H](C(=O)N[C@@H](CC(N)=O)C(=O)N[C@H](C(=O)NCC(=O)N[C@@H](CO)C(=O)N[C@@H](CC(N)=O)C(=O)N[C@H](C(=O)N[C@@H](Cc1ccc(O)cc1)C(N)=O)[C@@H](C)O)C(C)C)[C@@H](C)O
- Potency Luciferase [1]: 0.1 nM

B4: N-alpha-[19-carboxynonadecanoyl]-Glu-Lys-[Arg1,His17]-pramlintide (peptide)
peptide: {C20 diacid}-EKRCNTATCATQRLANFLHHSSNNFGPILPPTNVGSNTY-NH2
modifications: disulfide 4-9
SMILES: CC[C@H](C)[C@H](NC(=O)[C@@H]1CCCN1C(=O)CNC(=O)[C@H](Cc1ccccc1)NC(=O)[C@H](CC(N)=O)NC(=O)[C@H](CC(N)=O)NC(=O)[C@H](CO)NC(=O)[C@H](CO)NC(=O)[C@H](Cc1c[nH]cn1)NC(=O)[C@H](Cc1c[nH]cn1)NC(=O)[C@H](CC(C)C)NC(=O)[C@H](Cc1ccccc1)NC(=O)[C@H](CC(N)=O)NC(=O)[C@H](C)NC(=O)[C@H](CC(C)C)NC(=O)[C@H](CCCNC(=N)N)NC(=O)[C@H](CCC(N)=O)NC(=O)[C@@H](NC(=O)[C@H](C)NC(=O)[C@@H]1CSSC[C@H](NC(=O)[C@H](CCCNC(=N)N)NC(=O)[C@H](CCCCN)NC(=O)[C@H](CCC(=O)O)NC(=O)CCCCCCCCCCCCCCCCCCC(=O)O)C(=O)N[C@@H](CC(N)=O)C(=O)N[C@@H]([C@@H](C)O)C(=O)N[C@@H](C)C(=O)N[C@@H]([C@@H](C)O)C(=O)N1)[C@@H](C)O)C(=O)N[C@@H](CC(C)C)C(=O)N1CCC[C@H]1C(=O)N1CCC[C@H]1C(=O)N[C@H](C(=O)N[C@@H](CC(N)=O)C(=O)N[C@H](C(=O)NCC(=O)N[C@@H](CO)C(=O)N[C@@H](CC(N)=O)C(=O)N[C@H](C(=O)N[C@@H](Cc1ccc(O)cc1)C(N)=O)[C@@H](C)O)C(C)C)[C@@H](C)O
- Potency Luciferase [1]: 0.07 nM

B6: N-alpha-[19-carboxynonadecanoyl]-Glu-Lys-Arg-[His17]-pramlintide (peptide)
peptide: {C20 diacid}-EKRKCNTATCATQRLANFLHHSSNNFGPILPPTNVGSNTY-NH2
modifications: disulfide 5-10
SMILES: CC[C@H](C)[C@H](NC(=O)[C@@H]1CCCN1C(=O)CNC(=O)[C@H](Cc1ccccc1)NC(=O)[C@H](CC(N)=O)NC(=O)[C@H](CC(N)=O)NC(=O)[C@H](CO)NC(=O)[C@H](CO)NC(=O)[C@H](Cc1c[nH]cn1)NC(=O)[C@H](Cc1c[nH]cn1)NC(=O)[C@H](CC(C)C)NC(=O)[C@H](Cc1ccccc1)NC(=O)[C@H](CC(N)=O)NC(=O)[C@H](C)NC(=O)[C@H](CC(C)C)NC(=O)[C@H](CCCNC(=N)N)NC(=O)[C@H](CCC(N)=O)NC(=O)[C@@H](NC(=O)[C@H](C)NC(=O)[C@@H]1CSSC[C@H](NC(=O)[C@H](CCCCN)NC(=O)[C@H](CCCNC(=N)N)NC(=O)[C@H](CCCCN)NC(=O)[C@H](CCC(=O)O)NC(=O)CCCCCCCCCCCCCCCCCCC(=O)O)C(=O)N[C@@H](CC(N)=O)C(=O)N[C@@H]([C@@H](C)O)C(=O)N[C@@H](C)C(=O)N[C@@H]([C@@H](C)O)C(=O)N1)[C@@H](C)O)C(=O)N[C@@H](CC(C)C)C(=O)N1CCC[C@H]1C(=O)N1CCC[C@H]1C(=O)N[C@H](C(=O)N[C@@H](CC(N)=O)C(=O)N[C@H](C(=O)NCC(=O)N[C@@H](CO)C(=O)N[C@@H](CC(N)=O)C(=O)N[C@H](C(=O)N[C@@H](Cc1ccc(O)cc1)C(N)=O)[C@@H](C)O)C(C)C)[C@@H](C)O
- Potency Luciferase [1]: 0.06 nM

Next, values leading:

- Potency Luciferase [1]: 0.1 nM
B1: N-alpha-[(S)-4-Carboxy-4-(19-carboxynonadecanoylamino)butyryl]-Glu-Arg-His-[Arg1,His17]-pramlintide (peptide)
peptide: X2-ERHRCNTATCATQRLANFLHHSSNNFGPILPPTNVGSNTY-NH2
modifications: disulfide 5-10
SMILES: CC[C@H](C)[C@H](NC(=O)[C@@H]1CCCN1C(=O)CNC(=O)[C@H](Cc1ccccc1)NC(=O)[C@H](CC(N)=O)NC(=O)[C@H](CC(N)=O)NC(=O)[C@H](CO)NC(=O)[C@H](CO)NC(=O)[C@H](Cc1c[nH]cn1)NC(=O)[C@H](Cc1c[nH]cn1)NC(=O)[C@H](CC(C)C)NC(=O)[C@H](Cc1ccccc1)NC(=O)[C@H](CC(N)=O)NC(=O)[C@H](C)NC(=O)[C@H](CC(C)C)NC(=O)[C@H](CCCNC(=N)N)NC(=O)[C@H](CCC(N)=O)NC(=O)[C@@H](NC(=O)[C@H](C)NC(=O)[C@@H]1CSSC[C@H](NC(=O)[C@H](CCCNC(=N)N)NC(=O)[C@H](Cc2c[nH]cn2)NC(=O)[C@H](CCCNC(=N)N)NC(=O)[C@H](CCC(=O)O)NC(=O)CC[C@H](NC(=O)CCCCCCCCCCCCCCCCCCC(=O)O)C(=O)O)C(=O)N[C@@H](CC(N)=O)C(=O)N[C@@H]([C@@H](C)O)C(=O)N[C@@H](C)C(=O)N[C@@H]([C@@H](C)O)C(=O)N1)[C@@H](C)O)C(=O)N[C@@H](CC(C)C)C(=O)N1CCC[C@H]1C(=O)N1CCC[C@H]1C(=O)N[C@H](C(=O)N[C@@H](CC(N)=O)C(=O)N[C@H](C(=O)NCC(=O)N[C@@H](CO)C(=O)N[C@@H](CC(N)=O)C(=O)N[C@H](C(=O)N[C@@H](Cc1ccc(O)cc1)C(N)=O)[C@@H](C)O)C(C)C)[C@@H](C)O

- Potency Luciferase [1]: 0.09 nM
B2: N-alpha-[(S)-4-Carboxy-4-(19-carboxynonadecanoylamino)butyryl]-His-His-[Arg1,His17]-pramlintide (peptide)
peptide: HHRCNTATCATQRLANFLHHSSNNFGPILPPTNVGSNTY-NH2
modifications: disulfide 4-9; not fully specified (N-terminus); printed as N-alpha-[(S)-4-Carboxy-4-(19-carboxynonadecanoylamino)butyryl]-His-His-[Arg1,His17]-pramlintide

- Potency Luciferase [1]: 0.2 nM
Binder: {C20 diacid-γGlu}-KCNTATCATQRLANFLHHSSNNFGPILPPTNVGSNTY-NH2 (disulfide 2-7) [N-alpha-[(S)-4-Carboxy-4-(19-carboxynonadecanoylamino)butyryl]-[His17]-pramlintide]

- Potency Luciferase [2]: 0.9 nM
B5: N-alpha-(19-carboxynonadecanoyl)-Glu-Glu-Arg-[Glu1,Glu14,His17,Glu31]-pramlintide (peptide)
peptide: {C20 diacid}-EERECNTATCATQRLAEFLHHSSNNFGPILPPTEVGSNTY-NH2
modifications: disulfide 5-10
SMILES: CC[C@H](C)[C@H](NC(=O)[C@@H]1CCCN1C(=O)CNC(=O)[C@H](Cc1ccccc1)NC(=O)[C@H](CC(N)=O)NC(=O)[C@H](CC(N)=O)NC(=O)[C@H](CO)NC(=O)[C@H](CO)NC(=O)[C@H](Cc1c[nH]cn1)NC(=O)[C@H](Cc1c[nH]cn1)NC(=O)[C@H](CC(C)C)NC(=O)[C@H](Cc1ccccc1)NC(=O)[C@H](CCC(=O)O)NC(=O)[C@H](C)NC(=O)[C@H](CC(C)C)NC(=O)[C@H](CCCNC(=N)N)NC(=O)[C@H](CCC(N)=O)NC(=O)[C@@H](NC(=O)[C@H](C)NC(=O)[C@@H]1CSSC[C@H](NC(=O)[C@H](CCC(=O)O)NC(=O)[C@H](CCCNC(=N)N)NC(=O)[C@H](CCC(=O)O)NC(=O)[C@H](CCC(=O)O)NC(=O)CCCCCCCCCCCCCCCCCCC(=O)O)C(=O)N[C@@H](CC(N)=O)C(=O)N[C@@H]([C@@H](C)O)C(=O)N[C@@H](C)C(=O)N[C@@H]([C@@H](C)O)C(=O)N1)[C@@H](C)O)C(=O)N[C@@H](CC(C)C)C(=O)N1CCC[C@H]1C(=O)N1CCC[C@H]1C(=O)N[C@H](C(=O)N[C@@H](CCC(=O)O)C(=O)N[C@H](C(=O)NCC(=O)N[C@@H](CO)C(=O)N[C@@H](CC(N)=O)C(=O)N[C@H](C(=O)N[C@@H](Cc1ccc(O)cc1)C(N)=O)[C@@H](C)O)C(C)C)[C@@H](C)O

- Potency Luciferase [1]: 0.05 nM
B7: N-alpha-[(S)-4-Carboxy-4-(19-carboxynonadecanoylamino)butyryl]-His-Arg-[His1,His17]-pramlintide (peptide)
peptide: HRHCNTATCATQRLANFLHHSSNNFGPILPPTNVGSNTY-NH2
modifications: disulfide 4-9; not fully specified (N-terminus); printed as N-alpha-[(S)-4-Carboxy-4-(19-carboxynonadecanoylamino)butyryl]-His-Arg-[His1,His17]-pramlintide
